Read-outs that look alike come from different tables or passages of the source.
T1: RadD (Escherichia coli, UniProt P33919 1-586)
T1 sequence: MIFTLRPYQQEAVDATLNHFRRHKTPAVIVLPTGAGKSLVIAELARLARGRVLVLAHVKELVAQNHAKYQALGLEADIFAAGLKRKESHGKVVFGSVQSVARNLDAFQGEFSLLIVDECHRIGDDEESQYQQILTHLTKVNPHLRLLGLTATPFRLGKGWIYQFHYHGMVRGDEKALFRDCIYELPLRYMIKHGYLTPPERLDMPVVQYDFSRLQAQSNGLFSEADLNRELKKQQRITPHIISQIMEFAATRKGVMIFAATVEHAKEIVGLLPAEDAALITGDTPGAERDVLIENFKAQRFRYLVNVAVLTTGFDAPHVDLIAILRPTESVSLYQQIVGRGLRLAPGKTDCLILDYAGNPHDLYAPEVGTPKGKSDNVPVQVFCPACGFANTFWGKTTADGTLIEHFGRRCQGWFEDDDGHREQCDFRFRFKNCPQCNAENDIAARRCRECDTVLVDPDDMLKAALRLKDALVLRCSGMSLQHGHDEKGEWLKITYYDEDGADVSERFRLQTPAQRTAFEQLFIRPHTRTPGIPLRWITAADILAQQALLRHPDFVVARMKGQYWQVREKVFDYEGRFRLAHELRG

B1: three-way junction (OH1/OH4/3W) (structured_DNA)
DNA 1: CCCGTGATCACCAATGCAGATTGACGAACCTTTGCCCACGT
DNA 2: GGCAGTAGGCCTAGCATGACAATCTGCATTGGTGATCACGG
DNA 3: GACGTGGGCAAAGGTTCGTCGTCATGCTAGGCCTACTGC
B2: Holliday junction (OH1-OH4) (structured_DNA)
DNA 1: B1 DNA 1
DNA 2: GACGTGGGCAAAGGTTCGTCAATGGACTGACAGCTGCATGG
DNA 3: GCCATCCAGCTGTCAGTCCATTGTCATGCTAGGCCTACTGC
DNA 4: B1 DNA 2
B3: linear duplex (ZJRds1/ZJRds2) (dsDNA)
DNA 1: GCAATTAAGCTCTAAGCCATCCGCAAAAATGACCTCTTATCAAAAGGA
DNA 2: TCCTTTTGATAAGAGGTCATTTTTGCGGATGGCTAAGAGCTTAATTGC

Experiments:
RadD [1] = biological target: T1, RadD; test: fluorescence anisotropy
RadD [2] = biological target: T1, RadD; test: fluorescence anisotropy; remark: listed apart in the source
Uup [3] = biological target: T2, Uup (Escherichia coli, UniProt P43672 1-635); test: EMSA
Uup [4] = biological target: T2, Uup; test: EMSA; remark: listed apart in the source

T2 sequence (P43672 whole entry): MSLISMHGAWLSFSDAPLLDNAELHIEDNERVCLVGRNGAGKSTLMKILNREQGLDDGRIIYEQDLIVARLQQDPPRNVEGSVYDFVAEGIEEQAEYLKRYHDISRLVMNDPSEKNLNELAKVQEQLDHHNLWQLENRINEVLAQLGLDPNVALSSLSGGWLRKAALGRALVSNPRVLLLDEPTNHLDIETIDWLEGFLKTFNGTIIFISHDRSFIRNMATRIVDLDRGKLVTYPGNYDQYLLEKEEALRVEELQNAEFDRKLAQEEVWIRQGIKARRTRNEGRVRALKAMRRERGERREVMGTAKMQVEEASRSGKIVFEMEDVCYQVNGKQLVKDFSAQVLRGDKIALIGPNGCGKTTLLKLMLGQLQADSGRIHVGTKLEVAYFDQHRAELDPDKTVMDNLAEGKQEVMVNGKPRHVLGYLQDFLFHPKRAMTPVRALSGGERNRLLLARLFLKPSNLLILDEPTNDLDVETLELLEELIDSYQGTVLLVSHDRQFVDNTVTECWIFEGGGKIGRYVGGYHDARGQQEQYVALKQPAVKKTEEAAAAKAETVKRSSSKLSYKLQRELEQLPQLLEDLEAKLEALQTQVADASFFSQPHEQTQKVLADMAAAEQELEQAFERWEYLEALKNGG

Binder	binding result (RadD [1])	binding result (RadD [2])	binding result (Uup [3])	binding result (Uup [4])
B1	binds			
B2		no binding	binds	
B3		no binding		no binding

Reference: publication PMC7145654
